{"source": "patent USRE47150", "about": "(Bayer, dated 2018)", "binders": {"B1": {"name": "2A8 wild-type Fab (Fab, V domains shown)", "VH": "QVQLVESGGGLVQPGGSLRLSCAASGFTFRSYGMSWVRQAPGKGLEWVSSIRGSSSSTYYADSVKGRFTISRDNSKNTLYLQMNSLRAEDTAVYYCARKYRYWFDYWGQGTLVTVSS", "VL": "DIELTQPPSVSVAPGQTARISCSGDNLRNYYAHWYQQKPGQAPVVVIYYDNNRPSGIPERFSGSNSGNTATLTISGTQAEDEADYYCQSWDDGVPVFGGGTKLTVLG", "notes": "Fab with c-myc (or HA, or none) and 6xHis tag at the C-terminus of the heavy chain; also called 2A8wt; 2A8 wt"}, "B2": {"name": "4B7 HC_D62R (Fab, V domains shown)", "VH": "QVQLQQSGPGLVKPSQTLSLTCAISGDSVSSNSAAWSWIRQSPGRGLEWLGIIYKRSKWYNRYAVSVKSRITINPDTSKNQFSLQLNSVTPEDTAVYYCARWHSDKHWGFDYWGQGTLVTVSS", "VL": "DIVMTQSPLSLPVTPGEPASISCRSSQSLVFSDGNTYLNWYLQKPGQSPQLLIYKGSNRASGVPDRFSGSGSGTDFTLKISRVEAEDVGVYYCQQYDSYPLTFGQGTKVEIKR", "notes": "also called 4B7-D62R"}}, "key": {"[1]": {"target": "T1, human tissue factor pathway inhibitor (TFPI) (human, UniProt P10646 29-304, limits assumed)", "T1 construct": "bought; also called hTFPI; human TFPI", "T1 sequence (looked up)": "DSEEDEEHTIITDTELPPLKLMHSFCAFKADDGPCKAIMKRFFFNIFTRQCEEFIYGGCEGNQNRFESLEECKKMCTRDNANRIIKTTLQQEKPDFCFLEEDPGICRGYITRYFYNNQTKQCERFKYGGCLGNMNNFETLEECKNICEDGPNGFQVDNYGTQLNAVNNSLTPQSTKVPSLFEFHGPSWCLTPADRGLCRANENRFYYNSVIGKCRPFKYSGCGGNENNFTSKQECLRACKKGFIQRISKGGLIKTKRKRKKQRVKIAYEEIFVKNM", "experiment": "SPR, TFPI immobilized"}, "[2]": {"target": "T2, mouse tissue factor pathway inhibitor (TFPI) (mouse, UniProt O54819 29-289, limits assumed)", "T2 construct": "bought; also called mTFPI; murine TFPI", "T2 sequence (looked up)": "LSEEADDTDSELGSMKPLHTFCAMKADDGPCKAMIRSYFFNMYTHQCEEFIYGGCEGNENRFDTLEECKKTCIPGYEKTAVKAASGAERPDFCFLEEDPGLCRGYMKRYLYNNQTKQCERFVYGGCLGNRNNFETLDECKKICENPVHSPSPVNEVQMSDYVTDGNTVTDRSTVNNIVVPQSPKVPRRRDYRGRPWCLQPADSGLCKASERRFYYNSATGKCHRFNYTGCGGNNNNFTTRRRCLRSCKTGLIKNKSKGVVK", "experiment": "SPR, TFPI immobilized"}, "[3]": {"target": "T2, mouse tissue factor pathway inhibitor …", "experiment": "SPR, TFPI immobilized", "remark": "listed apart in the source"}, "[4]": {"target": "T3, recombinant TFPI of the FXa restoring assay (human, mouse or rat; not specified for Tables 9 and 10)", "experiment": "cell-based or functional assay"}, "[5]": {"target": "T3, recombinant TFPI of the FXa restoring …", "experiment": "cell-based or functional assay", "remark": "listed apart in the source"}, "[6]": {"target": "T1, human tissue factor pathway inhibitor …", "experiment": "SPR, TFPI immobilized", "remark": "listed apart in the source"}, "[7]": {"target": "T1, human tissue factor pathway inhibitor …", "experiment": "competitive ELISA"}, "[8]": {"target": "T2, mouse tissue factor pathway inhibitor …", "experiment": "equilibrium ELISA"}, "[9]": {"target": "T1, human tissue factor pathway inhibitor …", "experiment": "SPR, TFPI immobilized", "remark": "listed apart in the source"}}, "note": "Like-named read-outs stand apart in the source and are kept apart here."}
{"binder": "B1", "values": [{"measurement": "Improvement", "setting": "[1]", "result": 1, "unit": "fold"}, {"measurement": "Kd", "setting": "[1]", "result": 2.24, "unit": "nM"}, {"measurement": "koff", "setting": "[1]", "result": 0.007, "unit": "s⁻¹"}, {"measurement": "kon", "setting": "[1]", "result": "3.13e+06", "unit": "M⁻¹ s⁻¹"}, {"measurement": "Improvement", "setting": "[2]", "result": 1, "unit": "fold"}, {"measurement": "Kd", "setting": "[2]", "result": 3.51, "unit": "nM"}, {"measurement": "koff", "setting": "[2]", "result": 0.00517, "unit": "s⁻¹"}, {"measurement": "kon", "setting": "[2]", "result": "1.47e+06", "unit": "M⁻¹ s⁻¹"}, {"measurement": "KD fold improvement", "setting": "[3]", "result": 1, "unit": "fold"}, {"measurement": "Kd", "setting": "[3]", "result": 3.29, "unit": "nM"}, {"measurement": "koff", "setting": "[3]", "result": 0.0031, "unit": "s⁻¹"}, {"measurement": "kon", "setting": "[3]", "result": 940000, "unit": "M⁻¹ s⁻¹"}, {"measurement": "IC50, FXa restoring assay", "setting": "[4]", "result": 0.7, "unit": "µg/mL"}, {"measurement": "Improvement vs parental, FXa restoring assay", "setting": "[4]", "result": 1, "unit": "fold"}, {"measurement": "EC50, FXa restoring assay", "setting": "[5]", "result": 7.91, "unit": "nM"}, {"measurement": "Improvement vs parental 2A8, FXa restoring assay", "setting": "[5]", "result": 1, "unit": "fold"}, {"measurement": "KD fold improvement", "setting": "[6]", "result": 1, "unit": "fold"}, {"measurement": "Kd", "setting": "[6]", "result": 1.85, "unit": "nM"}, {"measurement": "koff", "setting": "[6]", "result": 0.0038, "unit": "s⁻¹"}, {"measurement": "kon", "setting": "[6]", "result": "2.05e+06", "unit": "M⁻¹ s⁻¹"}]}
{"binder": "B2", "values": [{"measurement": "Improvement", "setting": "[1]", "result": 191, "unit": "fold"}, {"measurement": "Kd", "setting": "[1]", "result": 0.0582, "unit": "nM"}, {"measurement": "koff", "setting": "[1]", "result": 0.000165, "unit": "s⁻¹"}, {"measurement": "kon", "setting": "[1]", "result": "2.83e+06", "unit": "M⁻¹ s⁻¹"}, {"measurement": "Improvement", "setting": "[2]", "result": 137, "unit": "fold"}, {"measurement": "Kd", "setting": "[2]", "result": 0.427, "unit": "nM"}, {"measurement": "koff", "setting": "[2]", "result": 0.00367, "unit": "s⁻¹"}, {"measurement": "kon", "setting": "[2]", "result": "8.58e+06", "unit": "M⁻¹ s⁻¹"}, {"measurement": "variant/wild-type", "setting": "[7]", "result": 32.3, "unit": "ratio"}, {"measurement": "variant/wild-type", "setting": "[8]", "result": 230, "unit": "ratio"}, {"measurement": "IC50, FXa restoring assay", "setting": "[4]", "result": 0.058, "unit": "µg/mL"}, {"measurement": "Improvement vs parental, FXa restoring assay", "setting": "[4]", "result": 25, "unit": "fold"}, {"measurement": "kd fold improvement against 4B7", "setting": "[9]", "result": "~50", "unit": "fold"}]}
